Data as given in publication PMC6689074, “In vivo Hox binding specificity revealed by systematic changes to a single cis regulatory module”.
Residue numbers refer to the chain shown, from its start.

Tests used:
[1] = biological target: T1, Ultrabithorax isoform IVa (UbxIVa);Extradenticle (Exd);Homothorax HM domain (HthHM) (Drosophila melanogaster?;Drosophila …, UniProt P83949-5;P40427;O46339 1-346;1-376;1-211, ||); experiment: EMSA; increased with high-affinity overlapping site; EMSA: 6 nM 32P dsDNA probe, 200 nM Exd-HM, 30-180 nM Hox; 4% polyacrylamide gel, 120 V, 2.5 h, 4 C; buffer, salt and pH not given in material; conditions: protein: recombinant;recombinant;recombinant; tags: His (pET21b);none (pET9a);His (pET21b); copies: 1;1;1; label: 32P
T1 sequence (P83949 other isoform, or with tags, fused parts or gaps ||, chain 1 of 3): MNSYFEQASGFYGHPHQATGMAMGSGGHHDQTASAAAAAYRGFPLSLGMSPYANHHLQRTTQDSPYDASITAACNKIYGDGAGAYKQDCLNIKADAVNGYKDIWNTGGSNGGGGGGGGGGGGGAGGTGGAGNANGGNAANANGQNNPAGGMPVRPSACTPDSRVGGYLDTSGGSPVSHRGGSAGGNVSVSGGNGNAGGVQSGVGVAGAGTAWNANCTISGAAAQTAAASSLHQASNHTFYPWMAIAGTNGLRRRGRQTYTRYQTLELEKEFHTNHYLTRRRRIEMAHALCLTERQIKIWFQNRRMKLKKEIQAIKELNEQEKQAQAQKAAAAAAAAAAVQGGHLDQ
T1 sequence (P40427 whole entry, chain 2 of 3, the tested form may be a part, canonical isoform): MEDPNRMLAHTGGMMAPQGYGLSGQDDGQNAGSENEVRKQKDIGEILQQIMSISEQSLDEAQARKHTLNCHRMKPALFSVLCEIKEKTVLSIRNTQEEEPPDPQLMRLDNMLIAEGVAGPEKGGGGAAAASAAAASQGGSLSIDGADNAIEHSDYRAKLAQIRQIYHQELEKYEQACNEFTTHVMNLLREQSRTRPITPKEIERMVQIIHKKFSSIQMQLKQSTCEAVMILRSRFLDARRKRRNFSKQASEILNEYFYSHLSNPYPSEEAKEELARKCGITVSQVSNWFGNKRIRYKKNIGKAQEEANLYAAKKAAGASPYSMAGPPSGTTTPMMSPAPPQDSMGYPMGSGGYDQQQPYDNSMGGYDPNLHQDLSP
T1 sequence (O46339 1-211, chain 3 of 3): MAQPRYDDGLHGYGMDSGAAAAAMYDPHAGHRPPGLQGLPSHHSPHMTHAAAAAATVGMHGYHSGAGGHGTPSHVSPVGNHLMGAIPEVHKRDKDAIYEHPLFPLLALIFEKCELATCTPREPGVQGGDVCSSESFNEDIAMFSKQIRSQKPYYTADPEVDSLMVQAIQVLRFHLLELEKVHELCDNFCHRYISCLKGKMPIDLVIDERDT

[2] = biological target: T1, Ultrabithorax isoform IVa …; experiment: EMSA; strong binding; EMSA: 6 nM 32P dsDNA probe, 200 nM Exd-HM, 30-180 nM Hox; 4% polyacrylamide gel, 120 V, 2.5 h, 4 C; buffer, salt and pH not given in material; conditions: protein: recombinant;recombinant;recombinant; tags: His (pET21b);none (pET9a);His (pET21b); copies: 1;1;1; label: 32P

B1: main class 1 + overlapping high-affinity class 3 oligo (dsDNA)
DNA 1: ACGGGATTTGATTGATTTATTAGAATTCGGCGACGAACGAAAGC
DNA 2: GCTTTCGTTCGTCGCCGAATTCTAATAAATCAATCAAATCCCGT
[1]
  binding result: binds

B2: mutant main + high-affinity overlapping class 3 oligo (dsDNA)
DNA 1: B1 DNA 1 with T8A, T9C
DNA 2: B1 DNA 2 with A36G, A37T
[2]
  binding result: binds
